Test results reported in paper PMC5500003, “RNA stores tau reversibly in complex coacervates”.

Biological target: tau 4R2N (Homo sapiens, UniProt P10636-8 1-441)
Test: EMSA; Hill coefficient 2.6; EMSA: 100 mM sodium acetate pH 7.0, 0.5 mM EDTA, 0.5 mM MgCl2, 0.01% IGEPAL CA-630, RNase inhibitor, 37 C 10 min, TBE 8% gel; ITC: 20 mM ammonium acetate pH 7
Details: protein: recombinant; chain copies: 2; label: 3' biotin kit RNA

Sequence of tau 4R2N (P10636 other isoform, or with tags, fused parts or gaps): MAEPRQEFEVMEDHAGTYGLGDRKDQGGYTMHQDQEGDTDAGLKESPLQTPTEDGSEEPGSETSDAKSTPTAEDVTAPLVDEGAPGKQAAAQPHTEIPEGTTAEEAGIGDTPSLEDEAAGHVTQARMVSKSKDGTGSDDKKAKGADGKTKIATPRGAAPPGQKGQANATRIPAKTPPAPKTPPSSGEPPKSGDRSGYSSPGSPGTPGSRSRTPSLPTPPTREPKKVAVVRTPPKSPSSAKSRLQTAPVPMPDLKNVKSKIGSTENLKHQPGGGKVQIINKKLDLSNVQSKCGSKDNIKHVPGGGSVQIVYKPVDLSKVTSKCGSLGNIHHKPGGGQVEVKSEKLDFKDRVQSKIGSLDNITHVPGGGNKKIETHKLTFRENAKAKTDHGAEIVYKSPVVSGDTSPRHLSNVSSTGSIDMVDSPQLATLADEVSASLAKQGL

B1: RNA43 (ssRNA)
RNA: CCUGGUUUUUAAGGAGUGUCGCCAGAGUGCCGCGAAUGAAAAA
Binder B1 has a Kd of 832 ± 94 nM.
